The record followed here is the Immune Epitope Database (IEDB).

Where only a bound is given, the exact number is not on record here.

One assay addresses HLA-A*24:02. The experiment in a line: IEDB peptide-MHC binding, purified MHC/competitive/fluorescence; ≥ and ≤ were set here for values at or beyond the usual limits of such assays. The following applies: source organism: Zaire ebolavirus.
The next assay concerns the target HLA-A*69:01. Kind of assay: IEDB peptide-MHC binding, purified MHC/competitive/fluorescence; filed as Kd, often an IC50 or EC50 that approximates it; ≥ and ≤ were set here for values at or beyond the usual limits of such assays.
Another assay concerns the target HLA-A*26:01. The assay is described as above.
The target of a further assay is HLA-A*32:15. The assay is described as above.
A further assay addresses HLA-B*45:06. The assay is described as above.
In the next assay the target is HLA-B*83:01. Described as above.
The next assay deals with HLA-A*68:23. The description is as above.
The next assay deals with HLA-B*39:01. Described as above.
Another assay deals with HLA-A*32:07. The assay is described as above.
In another assay the target is HLA-A*02:01. The assay is described as above.
In a further assay the target is HLA-B*58:01. The assay is described as above.
Another assay deals with HLA-B*27:03. The assay is described as above.
Another assay has as its target HLA-B*46:01. The assay is described as above.
The target in a further assay is HLA-B*15:42. The description is as above.
In another assay the target is HLA-B*18:01. The assay is described as above.
The next assay has as its target HLA-A*02:03. The experiment in a line: IEDB peptide-MHC binding, purified MHC/direct/fluorescence; filed as Kd, often an IC50 or EC50 that approximates it; ≥ and ≤ were set here for values at or beyond the usual limits of such assays.
In assay [1] the target is HLA-B*15:01. The description is as above. The following applies: source organism: Zaire ebolavirus.
Assay [2] has as its target HLA-A*68:02. The description is as above. The following applies: source organism: Zaire ebolavirus.
The next assay has as its target HLA-A*02:11. Described as above.
The next assay deals with HLA-A*02:12. Described as above.
The next assay deals with HLA-A*02:16. The assay is described as above.
Assay [3] has as its target HLA-A*03:01. The description is as above.
In another assay the target is HLA-A*02:19. Described as above.
The target of assay [4] is HLA-B*15:01. The experiment in a line: IEDB peptide-MHC binding, purified MHC/competitive/fluorescence; filed as Kd, often an IC50 or EC50 that approximates it; ≥ and ≤ were set here for values at or beyond the usual limits of such assays.
Another assay concerns the target HLA-C*12:03. Kind of assay: IEDB peptide-MHC binding, purified MHC/direct/fluorescence; filed as Kd, often an IC50 or EC50 that approximates it; ≥ and ≤ were set here for values at or beyond the usual limits of such assays.
The target of the next assay is HLA-C*03:03. The description is as above.
The target in another assay is HLA-B*51:01. The experiment in a line: IEDB peptide-MHC binding, purified MHC/competitive/fluorescence; filed as Kd, often an IC50 or EC50 that approximates it; ≥ and ≤ were set here for values at or beyond the usual limits of such assays.
The target of a further assay is HLA-B*35:01. The description is as above.
The next assay has as its target HLA-C*05:01. The experiment in a line: IEDB peptide-MHC binding, purified MHC/direct/fluorescence; filed as Kd, often an IC50 or EC50 that approximates it; ≥ and ≤ were set here for values at or beyond the usual limits of such assays.
In a further assay the target is HLA-A*01:01. Kind of assay: IEDB peptide-MHC binding, purified MHC/competitive/fluorescence; filed as Kd, often an IC50 or EC50 that approximates it; ≥ and ≤ were set here for values at or beyond the usual limits of such assays.
For assay [5], the target named is HLA-A*03:01. Described as above. The following applies: source organism: Salmonella enterica subsp. enterica serovar Typhi.
Another assay has as its target HLA-A*29:02. The experiment in a line: IEDB peptide-MHC binding, purified MHC/direct/fluorescence; filed as Kd, often an IC50 or EC50 that approximates it; ≥ and ≤ were set here for values at or beyond the usual limits of such assays. The conditions noted are these: source organism: Maciel virus.
The target of another assay is HLA-C*06:02. The assay is described as above.
The target in assay [6] is HLA-A*68:02. Kind of assay: IEDB peptide-MHC binding, purified MHC/competitive/fluorescence; filed as Kd, often an IC50 or EC50 that approximates it; ≥ and ≤ were set here for values at or beyond the usual limits of such assays. The following applies: source organism: Entamoeba histolytica HM-1:IMSS.
The next assay deals with HLA-B*53:01. The experiment in a line: IEDB peptide-MHC binding, purified MHC/competitive/radioactivity; filed as Kd, often an IC50 or EC50 that approximates it; ≥ and ≤ were set here for values at or beyond the usual limits of such assays. The following applies: source organism: Mammarenavirus juninense.
A further assay has as its target HLA-B*54:01. The assay is described as above. The following applies: source organism: Mammarenavirus juninense.
In another assay the target is HLA-B*07:02. Kind of assay: IEDB peptide-MHC binding, purified MHC/direct/fluorescence; filed as Kd, often an IC50 or EC50 that approximates it; ≥ and ≤ were set here for values at or beyond the usual limits of such assays. The conditions noted are these: source organism: Mammarenavirus juninense.
[7] abbreviates: source organism: Zaire ebolavirus.
The mark [8] stands for this setting: source organism: Escherichia coli O139:H28 str. E24377A.
[9] abbreviates: source organism: Yersinia pestis Nepal516.
The mark [10] stands for this setting: source organism: Salmonella enterica subsp. enterica serovar Typhi.
[11] abbreviates: source organism: Salmonella enterica subsp. enterica serovar Typhi str. CT18.
Setting [12] is: source organism: Lechiguanas virus.
[13] abbreviates: source organism: West Nile virus.
Where [14] appears, read: source organism: Mammarenavirus juninense.

TTIGEWAFW: the IC50 with HLA-A*24:02 was 113 nM. Further, the Kd is at least 20000 nM in the assay with HLA-A*69:01 (setting [7]); at least 20000 nM with HLA-A*26:01 (setting [7]); 26.9 nM with HLA-A*32:15 (setting [7]); at least 5000 nM in the assay with HLA-B*45:06 (setting [7]); at least 5000 nM with HLA-B*83:01 (setting [7]); 1.6 nM in the assay with HLA-A*68:23 (setting [7]). Besides, the Kd was at least 20000 nM in the assay with HLA-B*39:01 (setting [7]); 3.3 nM with HLA-A*32:07 (setting [7]); at least 20000 nM in the assay with HLA-A*02:01 (setting [7]); 0.3 nM with HLA-B*58:01 (setting [7]); at least 20000 nM in the assay with HLA-B*27:03 (setting [7]); at least 20000 nM with HLA-B*46:01 (setting [7]). In addition, the Kd in the assay with HLA-B*15:42 (setting [7]) is at least 5000 nM; in the assay with HLA-B*18:01 (setting [7]), at least 20000 nM; in the assay with HLA-A*02:03 (setting [7]) it was at least 20000 nM; with HLA-B*15:01 [1], at least 20000 nM; with HLA-A*68:02 [2], at least 20000 nM; with HLA-A*02:11 (setting [7]), at least 20000 nM. In addition, the Kd with HLA-A*02:12 (setting [7]), in the assay with HLA-A*02:16 (setting [7]), with HLA-A*03:01 [3] (setting [7]) and with HLA-A*02:19 (setting [7]) was at least 20000 nM in each case.
In the case of LAAEEILTL, the Kd with HLA-B*15:01 [4] (setting [8]) was at least 20000 nM; with HLA-B*39:01 (setting [8]), at least 20000 nM; in the assay with HLA-A*02:01 (setting [8]) it was 164 nM; with HLA-B*58:01 (setting [8]), 748 nM; with HLA-C*12:03 (setting [8]), 10 nM; in the assay with HLA-C*03:03 (setting [8]) it was at most 1 nM.
Turning to FASASSYAI, the Kd is 3780 nM with HLA-B*51:01 (setting [9]); 7.4 nM with HLA-B*39:01 (setting [9]); 0.4 nM in the assay with HLA-B*35:01 (setting [9]); 866 nM in the assay with HLA-C*05:01 (setting [9]); 105 nM with HLA-C*12:03 (setting [9]); at most 1 nM with HLA-C*03:03 (setting [9]).
As to IGILHLILW, the Kd with HLA-B*58:01 (source organism: Influenza A virus (A/Memphis/1/1978(H1N1))) turned out to be 3270 nM.
Regarding EIVAEYITY, the Kd was 41.6 nM with HLA-A*26:01 (setting [8]), 156 nM with HLA-B*15:01 [4] (setting [8]), 6.6 nM with HLA-B*35:01 (setting [8]) and at least 20000 nM with HLA-A*01:01 (setting [8]).
Consider HVCYFSHPY, for which the Kd with HLA-B*35:01 (setting [10]) was 0.7 nM; with HLA-A*03:01 [5], at least 20000 nM.
In the case of ITDWLNFTL, the equilibrium dissociation constant (Kd) came to 2.2 nM in the assay with HLA-A*02:01 (setting [10]), 123 nM with HLA-B*58:01 (setting [10]), 977 nM in the assay with HLA-A*01:01 (setting [10]) and 213 nM with HLA-C*05:01 (setting [11]).
For HTQAIEGAW, the equilibrium dissociation constant (Kd) with HLA-A*69:01 (setting [12]), in the assay with HLA-B*51:01 (setting [12]), in the assay with HLA-A*26:01 (setting [12]), in the assay with HLA-B*15:01 [4] (setting [12]), with HLA-B*39:01 (setting [12]) and in the assay with HLA-A*02:01 (setting [12]) was at least 20000 nM each time. In addition, the Kd with HLA-B*58:01 (setting [12]) was 1.3 nM; in the assay with HLA-B*27:03 (setting [12]) it was at least 20000 nM; with HLA-B*46:01 (setting [12]) it was at least 20000 nM; with HLA-B*18:01 (setting [12]), at least 20000 nM; in the assay with HLA-A*02:03 (source organism: Maciel virus) it was at least 20000 nM; in the assay with HLA-A*02:11 (source organism: Maciel virus), at least 20000 nM. Moreover, the Kd with HLA-A*29:02, with HLA-A*02:12 (source organism: Maciel virus), with HLA-A*02:16 (source organism: Maciel virus), with HLA-A*03:01 [3] (source organism: Maciel virus) and with HLA-A*02:19 (source organism: Maciel virus) was at least 20000 nM in each case.
Take YARYVLQKL: the dissociation constant (Kd) with HLA-C*06:02 (source organism: human gammaherpesvirus 4) is 874 nM.
For ETTNWLWTF, the dissociation constant Kd with HLA-A*32:15 (setting [13]) was 18.5 nM; in the assay with HLA-B*45:06 (setting [13]), at least 5000 nM; with HLA-B*83:01 (setting [13]), at least 5000 nM; in the assay with HLA-A*68:23 (setting [13]), 2.2 nM; with HLA-A*32:07 (setting [13]), 1.7 nM; in the assay with HLA-B*15:42 (setting [13]), at least 5000 nM.
With CAMFWYHYI, the equilibrium dissociation constant (Kd) was 7.2 nM with HLA-A*68:02 [6] and 1260 nM with HLA-C*06:02 (source organism: Entamoeba histolytica HM-1:IMSS).
Consider LPTTITVPV, for which the dissociation constant Kd was 700 nM in the assay with HLA-B*51:01 (setting [14]); at most 0.1 nM with HLA-B*35:01 (setting [14]); 127 nM with HLA-B*53:01; 9 nM in the assay with HLA-B*54:01; 824 nM in the assay with HLA-B*07:02.
On to FVVDTTPPL, for which the Kd in the assay with HLA-B*45:06 (setting [10]) was at least 5000 nM; in the assay with HLA-B*83:01 (setting [10]) it was at least 5000 nM; with HLA-B*39:01 (setting [10]), 7 nM; with HLA-A*02:01 (setting [10]) it was 0.2 nM; with HLA-B*35:01 (setting [10]), at most 0.1 nM; with HLA-B*15:42 (setting [10]), at least 5000 nM. In addition, the results for the Kd in the assay with HLA-C*05:01 (setting [11]), with HLA-C*12:03 (setting [11]) and in the assay with HLA-C*03:03 (setting [11]) were 1100 nM, 372 nM and 2 nM, respectively.
